Reference: the RNAGym collection of RNA variant scans (doi:10.1021/acssynbio.7b00057)

B1: Pistol ribozyme (parent)
chain: GGGUCGUUGUUCCAUAAUCGCGUGGAUAUGGCACGCAAGUUUCUACCGGGCACCGUAAAUGUCCGACUGGAGCCGUUCGGGCGGCUAUAAACAGACCUCAGGCCCGAAGCGUGGCGGCACCUGCCGCCGGUGGUAAAAAAGAUCGGAAGAGCACACGUCU

Variants of: B1
Test: aptazyme ON/OFF ratio, guanine; higher = stronger switching; co-transcriptional cleavage with and without guanine

In order of falling “aptazyme ON/OFF ratio” value:
1. GGGUCGCGUUCUAAUAAUCGCGUGGAUAUGGCACGCAAGUUUCUACCGGGCACCGUAAAUGUCCGACUGGAGCCGUUCGGGCGGCUAUAAACAGACCUCAGGCCCGAAGCGUGGCGGCACCUGCCGCCGGUGGUAAAAAAGAUCGGAAGAGCACACGUCU [U7C U8G G9U U11C C12U C13A]  1.38
2. GGGUCGUUUUAAGAUAAUCGCGUGGAUAUGGCACGCAAGUUUCUACCGGGCACCGUAAAUGUCCGACUGGAGCCGUUCGGGCGGCUAUAAACAGACCUCAGGCCCGAAGCGUGGCGGCACCUGCCGCCGGUGGUAAAAAAGAUCGGAAGAGCACACGUCU [G9U U11A C12A C13G]  1.31
3. GGGUCGGUGAGUUAUAAUCGCGUGGAUAUGGCACGCAAGUUUCUACCGGGCACCGUAAAUGUCCGACUGGAGCCGUUCGGGCGGCUAUAAACAGACCUCAGGCCCGAAGCGUGGCGGCACCUGCCGCCGGUGGUAAAAAAGAUCGGAAGAGCACACGUCU [U7G U10A U11G C12U C13U]  1.28
4. GGGUCGUCGGAUUAUAAUCGCGUGGAUAUGGCACGCAAGUUUCUACCGGGCACCGUAAAUGUCCGACUGGAGCCGUUCGGGCGGCUAUAAACAGACCUCAGGCCCGAAGCGUGGCGGCACCUGCCGCCGGUGGUAAAAAAGAUCGGAAGAGCACACGUCU [U8C U10G U11A C12U C13U]  1.25
5. GGGUCGCGCGCGUAUAAUCGCGUGGAUAUGGCACGCAAGUUUCUACCGGGCACCGUAAAUGUCCGACUGGAGCCGUUCGGGCGGCUAUAAACAGACCUCAGGCCCGAAGCGUGGCGGCACCUGCCGCCGGUGGUAAAAAAGAUCGGAAGAGCACACGUCU [U7C U8G G9C U10G U11C C12G C13U]  1.24
6. GGGUCGACGCGGGAUAAUCGCGUGGAUAUGGCACGCAAGUUUCUACCGGGCACCGUAAAUGUCCGACUGGAGCCGUUCGGGCGGCUAUAAACAGACCUCAGGCCCGAAGCGUGGCGGCACCUGCCGCCGGUGGUAAAAAAGAUCGGAAGAGCACACGUCU [U7A U8C U10C U11G C12G C13G]  1.24
7. GGGUCGCACAGUCAUAAUCGCGUGGAUAUGGCACGCAAGUUUCUACCGGGCACCGUAAAUGUCCGACUGGAGCCGUUCGGGCGGCUAUAAACAGACCUCAGGCCCGAAGCGUGGCGGCACCUGCCGCCGGUGGUAAAAAAGAUCGGAAGAGCACACGUCU [U7C U8A G9C U10A U11G C12U]  1.21
8. GGGUCGGAAUCAAAUAAUCGCGUGGAUAUGGCACGCAAGUUUCUACCGGGCACCGUAAAUGUCCGACUGGAGCCGUUCGGGCGGCUAUAAACAGACCUCAGGCCCGAAGCGUGGCGGCACCUGCCGCCGGUGGUAAAAAAGAUCGGAAGAGCACACGUCU [U7G U8A G9A U11C C12A C13A]  1.19
9. GGGUCGCCUGCACAUAAUCGCGUGGAUAUGGCACGCAAGUUUCUACCGGGCACCGUAAAUGUCCGACUGGAGCCGUUCGGGCGGCUAUAAACAGACCUCAGGCCCGAAGCGUGGCGGCACCUGCCGCCGGUGGUAAAAAAGAUCGGAAGAGCACACGUCU [U7C U8C G9U U10G U11C C12A]  1.17
10. GGGUCGCGUCGGAAUAAUCGCGUGGAUAUGGCACGCAAGUUUCUACCGGGCACCGUAAAUGUCCGACUGGAGCCGUUCGGGCGGCUAUAAACAGACCUCAGGCCCGAAGCGUGGCGGCACCUGCCGCCGGUGGUAAAAAAGAUCGGAAGAGCACACGUCU [U7C U8G G9U U10C U11G C12G C13A]  1.15
11. GGGUCGGCCUUAGAUAAUCGCGUGGAUAUGGCACGCAAGUUUCUACCGGGCACCGUAAAUGUCCGACUGGAGCCGUUCGGGCGGCUAUAAACAGACCUCAGGCCCGAAGCGUGGCGGCACCUGCCGCCGGUGGUAAAAAAGAUCGGAAGAGCACACGUCU [U7G U8C G9C C12A C13G]  1.15
12. GGGUCGUUAGCGAAUAAUCGCGUGGAUAUGGCACGCAAGUUUCUACCGGGCACCGUAAAUGUCCGACUGGAGCCGUUCGGGCGGCUAUAAACAGACCUCAGGCCCGAAGCGUGGCGGCACCUGCCGCCGGUGGUAAAAAAGAUCGGAAGAGCACACGUCU [G9A U10G U11C C12G C13A]  1.11
13. GGGUCGAUCAACAAUAAUCGCGUGGAUAUGGCACGCAAGUUUCUACCGGGCACCGUAAAUGUCCGACUGGAGCCGUUCGGGCGGCUAUAAACAGACCUCAGGCCCGAAGCGUGGCGGCACCUGCCGCCGGUGGUAAAAAAGAUCGGAAGAGCACACGUCU [U7A G9C U10A U11A C13A]  1.11
14. GGGUCGGAAUUCGAUAAUCGCGUGGAUAUGGCACGCAAGUUUCUACCGGGCACCGUAAAUGUCCGACUGGAGCCGUUCGGGCGGCUAUAAACAGACCUCAGGCCCGAAGCGUGGCGGCACCUGCCGCCGGUGGUAAAAAAGAUCGGAAGAGCACACGUCU [U7G U8A G9A C13G]  1.09
15. GGGUCGCCCUUCGAUAAUCGCGUGGAUAUGGCACGCAAGUUUCUACCGGGCACCGUAAAUGUCCGACUGGAGCCGUUCGGGCGGCUAUAAACAGACCUCAGGCCCGAAGCGUGGCGGCACCUGCCGCCGGUGGUAAAAAAGAUCGGAAGAGCACACGUCU [U7C U8C G9C C13G]  1.09
16. GGGUCGACUCAUGAUAAUCGCGUGGAUAUGGCACGCAAGUUUCUACCGGGCACCGUAAAUGUCCGACUGGAGCCGUUCGGGCGGCUAUAAACAGACCUCAGGCCCGAAGCGUGGCGGCACCUGCCGCCGGUGGUAAAAAAGAUCGGAAGAGCACACGUCU [U7A U8C G9U U10C U11A C12U C13G]  1.09
17. GGGUCGACCUAAAAUAAUCGCGUGGAUAUGGCACGCAAGUUUCUACCGGGCACCGUAAAUGUCCGACUGGAGCCGUUCGGGCGGCUAUAAACAGACCUCAGGCCCGAAGCGUGGCGGCACCUGCCGCCGGUGGUAAAAAAGAUCGGAAGAGCACACGUCU [U7A U8C G9C U11A C12A C13A]  1.07
18. GGGUCGCAUCCUUAUAAUCGCGUGGAUAUGGCACGCAAGUUUCUACCGGGCACCGUAAAUGUCCGACUGGAGCCGUUCGGGCGGCUAUAAACAGACCUCAGGCCCGAAGCGUGGCGGCACCUGCCGCCGGUGGUAAAAAAGAUCGGAAGAGCACACGUCU [U7C U8A G9U U10C U11C C12U C13U]  1.02
